In patent US20110059888A1:
[ ]: non-standard residue; d: D form. Arg(Me) = CNC(=N)NCCC[C@H](N)C(=O)O; Dap(CONH2) = NC(=O)NC[C@H](N)C(=O)O; Ala(cPr) = N[C@@H](CC1CC1)C(=O)O; Hyp = O=C(O)[C@@H]1C[C@@H](O)CN1; Cha = N[C@@H](CC1CCCCC1)C(=O)O; Cba = N[C@@H](CC1CCC1)C(=O)O; Dap = NC[C@H](N)C(=O)O

B1: des(1)-Ac-[D-Tyr2,Hyp3,Thr5,Cha6,Ala(cPr)8,Trp10]MS10 (peptide)
peptide: Ac-[dY][Hyp]NT[Cha]G[Ala(cPr)]RW-NH2
SMILES: CC(=O)N[C@H](Cc1ccc(O)cc1)C(=O)N1C[C@H](O)C[C@H]1C(=O)N[C@@H](CC(N)=O)C(=O)N[C@H](C(=O)N[C@@H](CC1CCCCC1)C(=O)NCC(=O)N[C@@H](CC1CC1)C(=O)N[C@@H](CCCNC(=N)N)C(=O)N[C@@H](Cc1c[nH]c2ccccc12)C(N)=O)[C@@H](C)O
B2: des(1)-Ac-[D-Tyr2,Hyp3,Thr5,Ala(cBu)6,Ala(cPr)8,Arg(Me)9,Trp10]MS10 (peptide)
peptide: Ac-[dY][Hyp]NT[Cba]G[Ala(cPr)][Arg(Me)]W-NH2
B3: des(1)-Ac-[D-Tyr2,Hyp3,Thr5,Cha6,Gly7Ψ(CH2CH2)Leu8,Trp10]MS10 (peptide)
peptide: Ac-[dY][Hyp]NT[Cha]GLRW-NH2
modifications: also: Gly7Ψ(CH2CH2)Leu8: amide between Gly and Leu replaced by -CH2CH2-
B4: des(1)-Ac-[D-Tyr2,Hyp3,Thr5,Dap7,Arg(Me)9,Trp10]MS10 (peptide)
peptide: Ac-[dY][Hyp]NTF[Dap]L[Arg(Me)]W-NH2
B5: des(1)-Ac-[D-Tyr2,Hyp3,Alb4,Thr5,Cha6,Gly7Ψ(CH2CH2)Leu8,Arg(Me)9,Trp10]MS10 (peptide)
peptide: Ac-[dY][Hyp][Dap(CONH2)]T[Cha]GL[Arg(Me)]W-NH2
modifications: also: Gly7-Leu8 amide bond replaced by -CH2CH2-
B6: des(1)-Ac-[D-Tyr2,Hyp3,Alb4,Ser5,Cha6,Ala(cPr)8,Arg(Me)9,Trp10]MS10 (peptide)
peptide: Ac-[dY][Hyp][Dap(CONH2)]S[Cha]G[Ala(cPr)][Arg(Me)]W-NH2
SMILES: CNC(=N)NCCC[C@H](NC(=O)[C@H](CC1CC1)NC(=O)CNC(=O)[C@H](CC1CCCCC1)NC(=O)[C@H](CO)NC(=O)[C@H](CNC(N)=O)NC(=O)[C@@H]1C[C@@H](O)CN1C(=O)[C@@H](Cc1ccc(O)cc1)NC(C)=O)C(=O)N[C@@H](Cc1c[nH]c2ccccc12)C(N)=O
B7: des(1)-Ac-[D-Tyr2,Hyp3,Alb4,Ala5,Cha6,Ala(cPr)8,Arg(Me)9,Trp10]MS10 (peptide)
peptide: Ac-[dY][Hyp][Dap(CONH2)]A[Cha]G[Ala(cPr)][Arg(Me)]W-NH2
SMILES: CNC(=N)NCCC[C@H](NC(=O)[C@H](CC1CC1)NC(=O)CNC(=O)[C@H](CC1CCCCC1)NC(=O)[C@H](C)NC(=O)[C@H](CNC(N)=O)NC(=O)[C@@H]1C[C@@H](O)CN1C(=O)[C@@H](Cc1ccc(O)cc1)NC(C)=O)C(=O)N[C@@H](Cc1c[nH]c2ccccc12)C(N)=O
B8: des(1)-Ac-[D-Tyr2,Hyp3,Alb4,Thr5,Cha6,Gly7Ψ(CH2CH2)Leu8,Trp10]MS10 (peptide)
peptide: Ac-[dY][Hyp][Dap(CONH2)]T[Cha]GLRW-NH2
modifications: also: Gly7-Leu8 amide bond replaced by -CH2CH2-
B9: des(1)-Ac-[D-Tyr2,Hyp3,Alb4,Dap5,Cha6,Ala(cPr)8,Arg(Me)9,Trp10]MS10 (peptide)
peptide: Ac-[dY][Hyp][Dap(CONH2)][Dap][Cha]G[Ala(cPr)][Arg(Me)]W-NH2
SMILES: CNC(=N)NCCC[C@H](NC(=O)[C@H](CC1CC1)NC(=O)CNC(=O)[C@H](CC1CCCCC1)NC(=O)[C@H](CN)NC(=O)[C@H](CNC(N)=O)NC(=O)[C@@H]1C[C@@H](O)CN1C(=O)[C@@H](Cc1ccc(O)cc1)NC(C)=O)C(=O)N[C@@H](Cc1c[nH]c2ccccc12)C(N)=O
B10: des(1)-Ac-[D-Tyr2,Hyp3,Alb4,Thr5,Cha6,Ala(cPr)8,Arg(Me)9,Trp10]MS10 (peptide)
peptide: Ac-[dY][Hyp][Dap(CONH2)]T[Cha]G[Ala(cPr)][Arg(Me)]W-NH2
SMILES: CNC(=N)NCCC[C@H](NC(=O)[C@H](CC1CC1)NC(=O)CNC(=O)[C@H](CC1CCCCC1)NC(=O)[C@@H](NC(=O)[C@H](CNC(N)=O)NC(=O)[C@@H]1C[C@@H](O)CN1C(=O)[C@@H](Cc1ccc(O)cc1)NC(C)=O)[C@@H](C)O)C(=O)N[C@@H](Cc1c[nH]c2ccccc12)C(N)=O
B11: des(1)-Ac-[D-Tyr2,Hyp3,Thr5,Cha6,Ala(cBu)8,Arg(Me)9,Trp10]MS10 (peptide)
peptide: Ac-[dY][Hyp]NT[Cha]G[Cba][Arg(Me)]W-NH2
B12: des(1)-Ac-[D-Tyr2,Glu3,Thr5,Cha6,Ala(cPr)8,Trp10]MS10 (peptide)
peptide: Ac-[dY]ENT[Cha]G[Ala(cPr)]RW-NH2
SMILES: CC(=O)N[C@H](Cc1ccc(O)cc1)C(=O)N[C@@H](CCC(=O)O)C(=O)N[C@@H](CC(N)=O)C(=O)N[C@H](C(=O)N[C@@H](CC1CCCCC1)C(=O)NCC(=O)N[C@@H](CC1CC1)C(=O)N[C@@H](CCCNC(=N)N)C(=O)N[C@@H](Cc1c[nH]c2ccccc12)C(N)=O)[C@@H](C)O
B13: des(1)-Ac-[D-Tyr2,Hyp3,Thr5,Phe6Ψ(CH2S)Gly7,Arg(Me)9,Trp10]MS10 (peptide)
peptide: Ac-[dY][Hyp]NTFGL[Arg(Me)]W-NH2
modifications: also: Phe5-Gly6 amide bond replaced by CH2S
B14: des(1)-Ac-[D-Tyr2,Hyp3,Alb4,Gly5,Cha6,Ala(cPr)8,Arg(Me)9,Trp10]MS10 (peptide)
peptide: Ac-[dY][Hyp][Dap(CONH2)]G[Cha]G[Ala(cPr)][Arg(Me)]W-NH2
SMILES: CNC(=N)NCCC[C@H](NC(=O)[C@H](CC1CC1)NC(=O)CNC(=O)[C@H](CC1CCCCC1)NC(=O)CNC(=O)[C@H](CNC(N)=O)NC(=O)[C@@H]1C[C@@H](O)CN1C(=O)[C@@H](Cc1ccc(O)cc1)NC(C)=O)C(=O)N[C@@H](Cc1c[nH]c2ccccc12)C(N)=O

The binders below were run against human OT7T175 (metastin receptor) (human) (UniProt Q969F8) (assay: cell-based or functional assay).
Chain of UniProt Q969F8 (Q969F8 whole entry L364H): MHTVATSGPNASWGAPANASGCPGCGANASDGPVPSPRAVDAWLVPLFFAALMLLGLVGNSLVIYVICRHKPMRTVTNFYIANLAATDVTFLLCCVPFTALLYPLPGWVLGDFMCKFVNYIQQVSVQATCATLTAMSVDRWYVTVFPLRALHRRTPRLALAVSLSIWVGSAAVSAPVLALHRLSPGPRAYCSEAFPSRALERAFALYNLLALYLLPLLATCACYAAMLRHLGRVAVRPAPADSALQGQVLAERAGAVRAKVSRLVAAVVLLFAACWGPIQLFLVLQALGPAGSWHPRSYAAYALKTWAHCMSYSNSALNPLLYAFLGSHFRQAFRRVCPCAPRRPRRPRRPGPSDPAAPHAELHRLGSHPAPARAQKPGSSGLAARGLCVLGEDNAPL

Row | Specific Activity (EC50 of test compound based on EC50 of Metastin (45-54); intracellular calcium, FLIPR) (ratio to EC50 of Metastin (45-54)) | Binder
1 | 0.5 | B1
2 | 0.7 | B2
3 | 1.1 | B3
4 | 1.3 | B4
5 | 1.1 | B5
6 | 0.5 | B6
7 | 0.5 | B7
8 | 1.3 | B8
9 | 0.7 | B9
10 | 0.5 | B10
11 | 0.5 | B11
12 | 0.4 | B12
13 | 0.7 | B13
14 | 0.7 | B14
